B1: Alpha-lactalbumin, P00712 (parent)
chain: MMSFVSLLLVGILFHATQAEQLTKCEVFQKLKDLKDYGGVSLPEWVCTAFHTSGYDTQAIVQNNDSTEYGLFQINNKIWCKDDQNPHSRNICNISCDKFLDDDLTDDIVCAKKILDKVGINYWLAHKALCSEKLDQWLCEKL

Variants of: B1
Conditions: Capra hircus; pH 2; 20 °C; Urea; CD; NaCl-HCl 100 mM; structure 1HFY; whole UniProt chain shown

| Variant | ddG of mutation (higher = less stable) | denaturant m value | denaturant midpoint (higher = more stable) | unfolding free energy |
| --- | --- | --- | --- | --- |
| MMSFVSLLLVGILFHATQAEQLTKCEVFQKLKDLKDYGGVSLPEWVCIAFHTSGYDTQAIVQNNDSTEYGLFQINNKIWCKDDQNPHSRNICNISCDKFLDDDLTDDIVCAKKILDKVGINYWLAHKALCSEKLDQWLCEKL | -0.07 kcal/mol | 0.31 kcal/mol/M | 2.5 M | 0.77 kcal/mol |
| MMSFVSLLLVGILFHATQAEQLTKCEVFQKLKDLKDYGGVSLPEWVCTTFHTSGYDTQAIVQNNDSTEYGLFQINNKIWCKDDQNPHSRNICNISCDKFLDDDLTDDIVCAKKILDKVGINYWLAHKALCSEKLDQWLCEKL | 0.14 kcal/mol | 0.29 kcal/mol/M | 1.9 M | 0.56 kcal/mol |
| MMSFVSLLLVGILFHATQAEQLTKCEVFQKLKDLKDYGGVSLPEWVCTIFHTSGYDTQAIVQNNDSTEYGLFQINNKIWCKDDQNPHSRNICNISCDKFLDDDLTDDIVCAKKILDKVGINYWLAHKALCSEKLDQWLCEKL | -0.3 kcal/mol | 0.33 kcal/mol/M | 3 M | 1 kcal/mol |
| MMSFVSLLLVGILFHATQAEQLTKCEVFQKLKDLKDYGGVSLPEWVCTAFHISGYDTQAIVQNNDSTEYGLFQINNKIWCKDDQNPHSRNICNISCDKFLDDDLTDDIVCAKKILDKVGINYWLAHKALCSEKLDQWLCEKL | -0.32 kcal/mol | 0.39 kcal/mol/M | 2.6 M | 1.02 kcal/mol |

From FireProtDB (doi:10.1093/protein/8.11.1153)
